T1: OX40 on OX40-overexpressing cells (OX40过表达细胞表面OX40) (UniProt P43489 29-277, limits assumed)
T1 construct: whole, on cells; The cell line and the construct of the overexpressing cells are not described; also called CD134; TNFRSF4
T1 sequence (looked up): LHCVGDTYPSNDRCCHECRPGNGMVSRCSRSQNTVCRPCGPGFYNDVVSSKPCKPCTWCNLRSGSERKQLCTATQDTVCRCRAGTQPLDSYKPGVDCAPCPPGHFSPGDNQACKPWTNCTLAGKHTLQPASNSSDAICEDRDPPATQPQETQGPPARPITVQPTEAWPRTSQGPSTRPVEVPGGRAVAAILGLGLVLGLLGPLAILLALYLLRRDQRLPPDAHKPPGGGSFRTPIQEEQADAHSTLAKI


molecular target: T1, OX40 on OX40-overexpressing cells …; assay: flow cytometry, hybridoma supernatant on OX40-overexpressing cells, goat anti-mouse IgG-PE

Binder	Y586通道PE荧光值
48D10-5 (antibody, V domains shown) VH: QVQLVQSGAEVKKPGASMKVSCKASGYTFANFGINWVRQAPGQGLEWMGWISAYNGYTNYAQQFQGRITMTTDTSTSTAYMELRSLRSDDTAIYYCVIWFGELLSFDYWGQGTLVTVSS VL: DIQMTQFPSSLSASVGDRVTITCRASQDISNYLAWFQQKPGKAPKSLIYAASSLQSGVPSKFSGNGFGTDFTFPLSRMQPEDFASSYCQQYNNYTFTFGRGTKVEIKR	358000
17D5-11 (antibody, V domains shown) VH: QVQLQESGPGLVKPSETLSLTCAVSGGSINSTNWWSWVRQPPGKGLEWIGEIYHSGSTNYNPSLKSRVTISVDKSKNQFSLKLSSVTAADTAVYYCARGGAVALDYWGQGTLVTVSS VL: EIVLTQSPGPLSLSPGDRATLSCRASQTVSSSYLAWYLQKPGQAPRLLIYGASIRATGIPDRFSGSGSGTDFTLTISRLEPEDFAVYYCQQYGNSPITFGQGTRLEIKR	475000
35B8-6 (antibody, V domains shown) VH: QITLKESGPTLVKPTQTLTLTCTFSGFSLSTSAVNVGWIRQPHGKALEWLALIFWNDDKRYSPSLKNRLTITKDTSKDQVVLTMSNMDPVDTATYYCAQYNWNSSFDYWGQGTLVTVSS VL: DIQMTQSPSSLSASLGDRVTITCQASQDINTYLNWYQQKPGKAPKVLIYDASNLETGVPSRFSGSGSGTDFTFTISSLQPEDIATFYCQQYDNLITFGGGTKVEIKR	243000
18F11-4 (antibody, V domains shown) VH: QVQLQESGPGLVKPSGTLSLTCAVSGGSISSYNWWSWVRQPPGKGLEWIGEIYHSGSTNYNPSLKSRVTISVDKSKNQFSLKLSSVTAADTAVYYCARDEDYYGSGNYYHWGQGTLVTVSS VL: not shown	402000
21F9-12 (antibody, V domains shown) VH: QVQLQESGPGLVKPSGTLSLTCAVSGGSISSYNWWSWVRQPPGKGLEWIGEIYHSGNTNYNPSLKSRVTISVDKSKNQFSLKLSSVTAADTAMYYCARDQDYYGSGNFYYWGQGTLVTVSS VL: not shown	424000
24F8-7 (antibody, V domains shown) VH: QVQLQESGPGLVKPSGTLSLTCAVSGGSISSYNWWSWVRQPPGKGLEWIGEIYHSGSTNYNPSLKSRVTISVDKSKNQFSLKLSSVTAADTAVYYCARDEDYYGSGNYYHWGQGTLVTVSS VL: not shown	437000
21D2-3 (antibody, V domains shown) VH: QVQLVESGGGLVKPGGSLRLSCAASGFTFSDYYMSWIRQAPGKGLEWVSYISSSGTTIYCADSVKGRFTISRDNAKNSLYLQMNSLRAEDTAVYYCARDSSTWYEGNYFDYWGQGTLVTVSS VL: not shown	202000
20G6-7-1 (antibody, V domains shown) VH: QVQLQESGPGLVKPSGTLSLTCAVSGGSISSSNWWSWVRQPPGKGLEWIGEIYHSGNTNYNPSLKSRVTISVDKSKNQFSLKLSSVTAADTAVYYCARGGTTFDYWGQGTLVTVSS VL: EIVLMQYPGTLSLSSGERATLSCRASQSVSSRYLAWYQQKPGQAPRLLIYGASNRASGMPDRFSGSGSGTEFTLTISSLEPEDFAMYYCQQYGSSPITFGQGTRVEIKR	352000
38D9-12 (antibody, V domains shown) VH: QVQLQESGPGLVKPSGTLSLTCAVSGDSISSTNWWSWVRQPPGKGLEWIGEINHNGSTYYNPSLKSRVTISVDKSKNQFSLKLRSVTAADTAVYYCAREDYYYMDVWGKGTTVTVSS VL: DIQMTQSPSSLSASVGDRVTITCRTSQGIWNDLGWYQQKPGKAPKRLIYAASSLQSGVPSRFSGSESGTEFTLTISSLQPEDFATYYCLQYNNYPLTFGGGTKVEIKR	243000
28E3-4 (antibody, V domains shown) VH: QVQLQESGPGLVKPSGTLSLTCAVSGGSISRSNWWTWVRQSPGKGLEWIGEIYHSGNTNYNPSLKSRVTISLDKSKNQFSLKLSSVTAADTAVYYCASSGSLYMDVWGKGTTVTVSS VL: DIQMTQSPSSLSASVGDRVTISCRASQSTSSYLNWYQQKPGKAPRLLIYGASSLQSGVPSRFSGSGSGTDFILTISSLQPEDFATYYCQQSYSIPITFGQGTRLEIKR	195000
4D9-12 (antibody, V domains shown) VH: QVQLQESGPGLVKPSGTLSLTCAVSGGSISSSNWWSWVRQPPGKGLEWIGEIYHSGNTIYNPSLKSRVTISLDKSKNQFSLKLSSVTAADTAVYYCASSGSLYMDVWGKGTTVTVSS VL: DIQMTQSPSSLLSSVGDRVTISCRASHGSSTYLNWYQQKPGKAPRLLIYGASSLQSGVPSRFSGSGFGTDFILTISSMQPEDFATYYCQQSYSIPITFGQGTRLEIKR	187000
29B8-3 (antibody, V domains shown) VH: QVQLQESGPGLVKPSGTLSLTCAVSGVSISSSNWWSWVRQPPGKGLEWIGEIYHSGNTNYNPSLKSRVTISVDKSKNQFSLKLSSVTAADTAVYYCAETSTITTNYWGQGTLVTVSS VL: DIQMTQSPSSLSASVGDRVTITCRASQTISSYLNWYQQKPGKAPKLLIYAASSLQSGVPSRFSGSESGTDFTLTISSLQPEDFATYYCQQTYSIPITFGQGTRLEIKR	388000
1F10-12-3 (antibody, V domains shown) VH: QVQLQESGPGLVKPSGTLSLTCAVSGGSISNSNWWNWVRQPPGRGLEWIGEIYHSGSTNYNPSLKSRVTISVDKSKNQFSLKLTSVTAADTAVYYCARYSTPFFDYWGQGNLVTVSS VL: DIQMTQSPSSLSASVGDRVTITCRASQSISNYLNWYQQKQGKAPKLLIYGASSLQSGVPSRFSGSGSGTDFTLTINSLQPEDFATYCCQQSYNNPLTFGGGTKVEIKR	170000
23D1-8 (antibody, V domains shown) VH: QVQLVQSGAEVKKPGASVKVSCKASGYTFTGYYIHWVRQAPGQGLEWMGRINPNSGGTDFAQKFQARVTMTRDTAINIVYMELSRLRSDDTAVYYCARVVVASYYFDNWGQGTLVTVSS VL: not shown	166000
24B9-10 (antibody, V domains shown) VH: QVQLQESGPGLVKPSGTLSLTCAVSGGSISSSNWWTWVRQPPGKGLEWIGEIYHSGSTNYNPSLKSRVTISVDKSKNQFSLKLSSVTAADTAVYYCARTGPIVTTEYWGQGTLVTVSS VL: EIVLTQSPGTLSLSPGERATLSCRASQSVSSGYLAWYQQKPGQAPRLLIYGASIRATGIPDRFSGSGSGTDFTLTISRLEPEDFALYYCQQYGSSPLTFGGGTKVEIKR	313000
21F3-11 (antibody, V domains shown) VH: QVQLQESGPGLVKPSGTLSLTCAVSGGSISSSNWWSWVRQPPGKGLEWIGEIYHGGSTNYNPSLKSRITISVDKSKNQFSLKLSSVTAADTAMYYCATLPGYSSGWFDSWGQGTLVTVSS VL: EIVLMQSPGTLSLSPGERATLSCRASQSVSSSYLAWYQQKPGQAPSLLIYGASNRASGIPDRFSGSGSGTDFTLTITRLEPEDFAVYYCQQYGSSPLTFGGGTRVEIKR	171000
16E4-10-5 (antibody, V domains shown) VH: QVQLQESGPGLVKPSGTLSLTCDVSGGSISSSNWWSWVRQPPGKGLEWIGEIYHSGSTNYNPSLKSRVTISVDKSKNQVSLKLNSVTAADTAVYYCARGDILLWFGGQGTLVTVSS VL: EIVLTQSPGTLSLSPGERATLSCRASQSVSSRYLAWYQQKPGQAPRLLIYGASNRATGMPDRFSGSGSGTDFTLTISRLEPEDFAVYYCQQYGSSPITFGQGTRLEIKR	377000
14D3-7-3 (antibody, V domains shown) VH: EVQLVESGGGLVKPGGSLRLSCAASGFTFSNAWMSWVRQAPGKGLEWVGRIKRKTDGGTTDYATPVKGRFTISRDASKNTLYLQMNSLKTEDTAVYYCTSAARRGYFDIWGRGTLVTVSS VL: EIVLTQSPGTLSLSPGERATLSCRASQSVSSRYLAWYQQKPGQAPRLLIYGASNRATGMPDRFSGSGSGTDFTLTISRLEPEDFAMYYCQQYGSSPITFGQGTRLEIKR	274000
20D2-12 (antibody, V domains shown) VH: QVQLVESGGGLVKPGGSLRLSCAASGFTFSDYYMSWIRQAPGRGLEWISYISGSDSTIYYEDSVMGRFTISRDNAKNSLYLQMNSLRAEDTAVYYCARDRDVYGYSGYGYFDYWGQGTLVTVSS VL: EIVLTQSPGTLSLSPGERATLSCRASQSVSSRYLAWYQQKPGQAPRLLIYGASNRATGMPDRFSGSGSGTDFTLTISRLEPEDFAVYYCQQYGSSPITFGQGTRLEIKR	540000
23C4-1-5 (antibody, V domains shown) VH: QVQLQESGPGLVKPSGTLSLTCAVSGGSISSSNWWSWVRQPPGKGLEWIGEIYHSGSTTYNPSLKSRVTISVDKSKSQISLKLTSVTAADTAVYYCARGDVLLWFGGRGTLVTVSS VL: EIVLTQSPGTLSLSPGERASLSCRASQSVSSNYLAWYQQKPGQTPRLLIYGASIRATGIPDRFSGSGSGTDFTLIISRLEPEDFAVYYCQQYSSSPITFGQGTRLEIKR	63900
24A12-12 (antibody, V domains shown) VH: QVQLQESGPGLVKPAGTLSLTCAVSGGSISSSNWWNWVRQPPGKGLEWIGEIYHSGSTNYNPSLKSRVTISVDTSKNQFSLKLTSVTAADTAVYYCARTGPTVTTDYWGQGTLVTVSS VL: EIVLTQSPGTLSLSPGERATLSCRASQSVSSSYLAWYQQKPGQAPRLLIYGASYRATGMPERFSGSGSGTDFTLTISRLEPEDFAIYYCQQYGRSPLTFGGGTKVEIKR	343000
18F5-2 (antibody, V domains shown) VH: QVQMQESGPGLVKPSGTLSLICAVSGGSISSSKWWSWVRQPPGKGLEWIGEIYHSGSTNYNPSLKSRVTISIDKSKNQFSLRLTSVTAADTAVYYCARGDVLLWFGGQGTLVTVSS VL: not shown	432000
26C3-4 (antibody, V domains shown) VH: QVQLQESGPGLVKPSGTLSLTCDVSGGSISSSNWWSWVRQPPGKGLEWIGEIYHSGSTNYNPSLKSRVTISVDKSKNQVSLKLNSVTAADTAVYYCARGDILLWFGGQGTLVTVSS VL: not shown	416000
29A9-5 (antibody, V domains shown) VH: QVQLQESGPGLVKPSGTLSLTCAVFGDSISSSYWWSWVRQPPGKGLEWIGEIYHSGSTHYNPSLKSRVTISVDKSKNHLSLKLISVTDADTAVYYCAGEDTGWPFDFWGQGTLVTVSS VL: not shown	221000

Reference: patent publication CN114106174A (SUZHOU SCENE MEDICAL SCIENCE AND TECH LIMITED COMPANY, dated 2022)
